Measured values reported in the supplement of paper PMC9112550, “Optimization of the antimicrobial peptide Bac7 by deep mutational scanning” (BMC Biology, 2022).

System: Escherichia coli TOP10
Test: shrunken log2 fold change of peptide-encoding DNA abundance (4.5 h post-induction vs induction); higher = less antimicrobial activity (less host growth inhibition)
Conditions: time post-induction: 4.5 h; library: site-saturation at positions 5, 18, 19, 20
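Note: peptides expressed intracellularly from a pBAD plasmid library in pooled LB shake-flask culture, induced with 0.3% L-arabinose, DNA abundance read by NGS, three biological replicates, DESeq2 with apeglm shrinkage.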

Sequence	shrunken log2 fold change
RRIRCRPPRLPRPRPRPDYPPRP	-0.221
RRIRNRPPRLPRPRPRPEIKPRP	0.101
RRIRSRPPRLPRPRPRPICQPRP	-0.00676
RRIRCRPPRLPRPRPRPFHEPRP	-0.917
RRIRDRPPRLPRPRPRPLVHPRP	0.265
RRIRNRPPRLPRPRPRPTLHPRP	-0.0665
RRIRRRPPRLPRPRPRPAHEPRP	0.598
RRIRGRPPRLPRPRPRPSPTPRP	0.828
RRIRLRPPRLPRPRPRPGGKPRP	-0.00333
RRIRMRPPRLPRPRPRPWASPRP	0.0142
RRIRVRPPRLPRPRPRPPMDPRP	-0.291
RRIRYRPPRLPRPRPRPTMIPRP	-0.455
RRIRWRPPRLPRPRPRPGVTPRP	0.586
RRIRQRPPRLPRPRPRPTVHPRP	-0.367
RRIRQRPPRLPRPRPRPNPDPRP	-0.0331
RRIRKRPPRLPRPRPRPTPPPRP	1.25
RRIRQRPPRLPRPRPRPQQPPRP	0.00789
RRIRIRPPRLPRPRPRPCASPRP	0.02
RRIRSRPPRLPRPRPRPADCPRP	0.0938
RRIRTRPPRLPRPRPRPKFAPRP	0.232
RRIRYRPPRLPRPRPRPKLHPRP	-0.431
RRIRIRPPRLPRPRPRPVFSPRP	-0.626
RRIRYRPPRLPRPRPRPCFQPRP	-0.267
RRIRHRPPRLPRPRPRPLPFPRP	-0.73
RRIRWRPPRLPRPRPRPFHFPRP	-0.451

Sequence	shrunken log2 fold change
RRIRARPPRLPRPRPRPGCHPRP	0.265
RRIRIRPPRLPRPRPRPGCGPRP	0.349
RRIRLRPPRLPRPRPRPHAYPRP	-0.392
RRIRCRPPRLPRPRPRPHMRPRP	0.0898
RRIRWRPPRLPRPRPRPQSSPRP	-0.276
RRIRHRPPRLPRPRPRPPPQPRP	0.844
RRIRERPPRLPRPRPRPILHPRP	-0.0255
RRIRHRPPRLPRPRPRPGIVPRP	-0.286
RRIRDRPPRLPRPRPRPHTSPRP	0.0247
RRIRIRPPRLPRPRPRPVSWPRP	-0.171
RRIRQRPPRLPRPRPRPASTPRP	-0.0855
RRIRTRPPRLPRPRPRPQLIPRP	-0.222
RRIRMRPPRLPRPRPRPVRQPRP	0.332
RRIRPRPPRLPRPRPRPHHIPRP	-0.544
RRIRDRPPRLPRPRPRPCMPPRP	0.0198
RRIRHRPPRLPRPRPRPIQRPRP	-0.204
RRIRQRPPRLPRPRPRPFHNPRP	-0.152
RRIRPRPPRLPRPRPRPSTCPRP	-0.11
RRIRSRPPRLPRPRPRPCPLPRP	-0.823
RRIRLRPPRLPRPRPRPCFFPRP	-0.13
RRIRFRPPRLPRPRPRPQIQPRP	-0.42
RRIRWRPPRLPRPRPRPERIPRP	0.0766
RRIRVRPPRLPRPRPRPVYWPRP	0.0159
RRIRHRPPRLPRPRPRPMQPPRP	0.172
RRIRARPPRLPRPRPRPPVVPRP	0.378

Sequence	shrunken log2 fold change
RRIRDRPPRLPRPRPRPPCWPRP	0.407
RRIRSRPPRLPRPRPRPGPWPRP	-0.0683
RRIRRRPPRLPRPRPRPEGDPRP	0.956
RRIRWRPPRLPRPRPRPMAKPRP	0.148
RRIRWRPPRLPRPRPRPWRHPRP	-0.141
RRIRARPPRLPRPRPRPARGPRP	0.774
RRIRVRPPRLPRPRPRPDGMPRP	-0.454
RRIRHRPPRLPRPRPRPQFPPRP	-0.157
RRIRNRPPRLPRPRPRPMIYPRP	-0.265
RRIRQRPPRLPRPRPRPLEQPRP	0.0165
RRIRYRPPRLPRPRPRPMGMPRP	-0.188
RRIRGRPPRLPRPRPRPCGRPRP	0.799
RRIRFRPPRLPRPRPRPKCCPRP	-0.149
RRIRTRPPRLPRPRPRPGTKPRP	-0.122
RRIRNRPPRLPRPRPRPHGLPRP	-0.257
RRIRFRPPRLPRPRPRPLIGPRP	-0.106
RRIRDRPPRLPRPRPRPVIPPRP	0.471
RRIRVRPPRLPRPRPRPMSCPRP	0.0534
RRIRWRPPRLPRPRPRPDYGPRP	-0.202
RRIRVRPPRLPRPRPRPITKPRP	0.0714
RRIRCRPPRLPRPRPRPWACPRP	-0.0929
RRIRPRPPRLPRPRPRPGGVPRP	0.567
RRIRVRPPRLPRPRPRPGWRPRP	0.49
RRIRPRPPRLPRPRPRPQAQPRP	0.143
RRIRDRPPRLPRPRPRPSLDPRP	-0.0616

Sequence	shrunken log2 fold change
RRIRGRPPRLPRPRPRPYKVPRP	-0.0404
RRIRDRPPRLPRPRPRPKYSPRP	-0.0792
RRIRKRPPRLPRPRPRPQHKPRP	0.196
RRIRDRPPRLPRPRPRPHGIPRP	-0.265
RRIRKRPPRLPRPRPRPTTWPRP	0.414
RRIRCRPPRLPRPRPRPRSWPRP	0.417
RRIRHRPPRLPRPRPRPPEPPRP	0.113
RRIRERPPRLPRPRPRPPFYPRP	-0.367
RRIRNRPPRLPRPRPRPAVDPRP	0.0455
RRIRNRPPRLPRPRPRPVRQPRP	0.0327
RRIRNRPPRLPRPRPRPHHLPRP	-0.427
RRIRSRPPRLPRPRPRPELCPRP	-0.0749
RRIRERPPRLPRPRPRPQQSPRP	-0.05
RRIRWRPPRLPRPRPRPSWDPRP	0.251
RRIRGRPPRLPRPRPRPNEMPRP	0.703
RRIRVRPPRLPRPRPRPHTEPRP	-0.042
RRIRRRPPRLPRPRPRPRGDPRP	0.393
RRIRPRPPRLPRPRPRPFEPPRP	0.232
RRIRVRPPRLPRPRPRPSHFPRP	-0.443
RRIRERPPRLPRPRPRPVKWPRP	-0.129
RRIRLRPPRLPRPRPRPGCKPRP	-0.0977
RRIRIRPPRLPRPRPRPAFWPRP	0.15
RRIRSRPPRLPRPRPRPHRSPRP	-0.188
RRIRCRPPRLPRPRPRPVRAPRP	0.486
RRIRLRPPRLPRPRPRPSEQPRP	-0.153

Sequence	shrunken log2 fold change
RRIRVRPPRLPRPRPRPGCAPRP	0.757
RRIRMRPPRLPRPRPRPNSPPRP	0.147
RRIRLRPPRLPRPRPRPFLRPRP	-0.429
RRIRARPPRLPRPRPRPTYEPRP	0.179
RRIRMRPPRLPRPRPRPCQFPRP	0.0126
RRIRARPPRLPRPRPRPVMVPRP	0.0116
RRIRVRPPRLPRPRPRPCWRPRP	0.0437
RRIRARPPRLPRPRPRPPTGPRP	0.663
RRIRVRPPRLPRPRPRPNGAPRP	-0.0189
RRIRWRPPRLPRPRPRPGAEPRP	1.17
RRIRLRPPRLPRPRPRPMTYPRP	-0.0978
RRIRRRPPRLPRPRPRPLIGPRP	-0.0159
RRIRIRPPRLPRPRPRPVHRPRP	-0.194
RRIRWRPPRLPRPRPRPVCHPRP	0.0811
RRIRGRPPRLPRPRPRPVSYPRP	0.291
RRIRTRPPRLPRPRPRPRMDPRP	-0.38
RRIRQRPPRLPRPRPRPSDFPRP	-0.128
RRIRVRPPRLPRPRPRPRMWPRP	0.271
RRIRKRPPRLPRPRPRPMVTPRP	0.231
RRIRKRPPRLPRPRPRPQRMPRP	0.408
RRIRQRPPRLPRPRPRPDQAPRP	0.0424
RRIRCRPPRLPRPRPRPMFNPRP	-0.848
RRIRIRPPRLPRPRPRPNCDPRP	-0.486
RRIRIRPPRLPRPRPRPKSFPRP	0.0398
RRIRFRPPRLPRPRPRPTSDPRP	-0.206

Sequence	shrunken log2 fold change
RRIRGRPPRLPRPRPRPNFRPRP	-0.00192
RRIRCRPPRLPRPRPRPRWMPRP	0.346
RRIRMRPPRLPRPRPRPAQWPRP	0.533
RRIRYRPPRLPRPRPRPHLFPRP	-0.313
RRIRIRPPRLPRPRPRPRCIPRP	-0.44
RRIRGRPPRLPRPRPRPDMWPRP	0.132
RRIRSRPPRLPRPRPRPYTPPRP	-1.07
RRIRLRPPRLPRPRPRPIHAPRP	0.111
RRIRDRPPRLPRPRPRPAFNPRP	-0.223
RRIRPRPPRLPRPRPRPKPVPRP	0.154
RRIRSRPPRLPRPRPRPRDRPRP	0.271
RRIRTRPPRLPRPRPRPWRAPRP	0.21
RRIRARPPRLPRPRPRPKRPPRP	1.03
RRIRPRPPRLPRPRPRPEACPRP	0.321
RRIRKRPPRLPRPRPRPGYTPRP	-0.0679
RRIRERPPRLPRPRPRPNNTPRP	-0.769
RRIRSRPPRLPRPRPRPDRTPRP	-0.256
RRIRCRPPRLPRPRPRPLQYPRP	-0.0878
RRIRNRPPRLPRPRPRPKLLPRP	0.127
RRIRNRPPRLPRPRPRPSYPPRP	0.0469
RRIRTRPPRLPRPRPRPSTMPRP	-0.669
RRIRLRPPRLPRPRPRPQSIPRP	-0.0983
RRIRYRPPRLPRPRPRPYLLPRP	-1.28
RRIRVRPPRLPRPRPRPDNPPRP	-0.101
RRIRARPPRLPRPRPRPLACPRP	0.695
